According to paper PMC2853112:

Each binder was assayed against T1, MjNep1 (Methanocaldococcus jannaschii, UniProt Q57977 1-205) (assay: fluorescence quenching).
T1 sequence (Q57977 whole entry): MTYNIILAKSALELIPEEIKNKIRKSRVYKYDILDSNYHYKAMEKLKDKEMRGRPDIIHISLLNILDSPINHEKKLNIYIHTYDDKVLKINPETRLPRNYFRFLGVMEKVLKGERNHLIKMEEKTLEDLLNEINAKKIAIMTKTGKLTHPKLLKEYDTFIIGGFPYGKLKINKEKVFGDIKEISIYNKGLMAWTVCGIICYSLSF
GAUUCAACGCC (ssRNA, pseudouridine at position 3 (nt 913)) [RNA 9] gave a Kd of 2 ± 1 nM. GGAUUCAAC (ssRNA) [RNA 3] showed a Kd of 1650 ± 380 nM. For UUCAACGC (ssRNA) [RNA 4], the Kd was 77 ± 27 nM. UCAACGCC (ssRNA, pseudouridine at position 1 (nt 914)) [RNA 12] gave a Kd of 7 ± 2 nM. For GAUUCAACGCC (ssRNA, pseudouridine at position 4 (nt 914)) [RNA 8], the Kd was 11 ± 4 nM. For GGAUUCAACGCC (ssRNA) [RNA 6], the Kd was 7 ± 2 nM. For UUGGAUUCAACGCCGG (ssRNA) [RNA 7 (complete hairpin loop 35)], the Kd was 3 ± 1 nM. UUCAACGCC (ssRNA) [RNA 5] was tested, and the Kd was 8 ± 5 nM.

The binders below were run against T1, MjNep1 (assay: NMR 15N-HSQC titration).
With UUCAAC (ssRNA) [RNA 1] the Kd was > 1000 nM.
